The source of these data is patent US20230192820A1 (published 2023).

This test concerns the target stabilized trimer of the full ectodomain of SARS-CoV-2 spike protein (residues 1-1208, NIAID VRC7471) (SARS-CoV-2, UniProt P0DTC2 14-1208).

B1: MAb362 IgA1 (monomeric) (antibody, V domains shown)
VH: QVQLVESGGGVVQPGRSLRLSCAASGFSFSSYGMHWVRQAPGKGLEWVAVIWYDGSDKYYADSVKGRFTISRDNSKNTLYLQLNSLRAEDTAIYYCARERYFDWIFDFWGQGTLVTVSS
VL: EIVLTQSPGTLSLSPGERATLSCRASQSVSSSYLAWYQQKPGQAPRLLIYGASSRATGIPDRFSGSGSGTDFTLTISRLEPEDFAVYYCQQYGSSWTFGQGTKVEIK
B1: the Kd (as a rule, the concentration at which binding is half-saturated) came out at 0.17 nM.

B2: MAb362 IgG1 (antibody, V domains shown)
VH: B1 VH
VL: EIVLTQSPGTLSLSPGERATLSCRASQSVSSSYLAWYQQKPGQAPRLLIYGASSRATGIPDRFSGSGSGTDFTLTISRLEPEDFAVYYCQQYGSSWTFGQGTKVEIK
With B2, the affinity, expressed as Kd, was 27 nM.
